Laboratory results: patent US20240293553A1 (BETH ISRAEL DEACONESS MEDICAL CENTER, published 2024)
Square brackets hold non-standard residues; d marks the D form. Side chains are listed from the residue outwards. Ends that are not written are not given here. mPEG 40 kDa (SVA) = 40 kDa methoxy poly(ethylene glycol) succinimidyl valerate (mPEG-SVA); triazole linker = not defined here; Fs = not defined here

T1: murine P-selectin-Fc chimera (murine, UniProt Q01102 42-709)
T1 construct: Bought from R&D Systems; also called mouse P-selectin chimera; species-specific P-selectin-Fc chimera; not shown: Fc part
T1 sequence (looked up): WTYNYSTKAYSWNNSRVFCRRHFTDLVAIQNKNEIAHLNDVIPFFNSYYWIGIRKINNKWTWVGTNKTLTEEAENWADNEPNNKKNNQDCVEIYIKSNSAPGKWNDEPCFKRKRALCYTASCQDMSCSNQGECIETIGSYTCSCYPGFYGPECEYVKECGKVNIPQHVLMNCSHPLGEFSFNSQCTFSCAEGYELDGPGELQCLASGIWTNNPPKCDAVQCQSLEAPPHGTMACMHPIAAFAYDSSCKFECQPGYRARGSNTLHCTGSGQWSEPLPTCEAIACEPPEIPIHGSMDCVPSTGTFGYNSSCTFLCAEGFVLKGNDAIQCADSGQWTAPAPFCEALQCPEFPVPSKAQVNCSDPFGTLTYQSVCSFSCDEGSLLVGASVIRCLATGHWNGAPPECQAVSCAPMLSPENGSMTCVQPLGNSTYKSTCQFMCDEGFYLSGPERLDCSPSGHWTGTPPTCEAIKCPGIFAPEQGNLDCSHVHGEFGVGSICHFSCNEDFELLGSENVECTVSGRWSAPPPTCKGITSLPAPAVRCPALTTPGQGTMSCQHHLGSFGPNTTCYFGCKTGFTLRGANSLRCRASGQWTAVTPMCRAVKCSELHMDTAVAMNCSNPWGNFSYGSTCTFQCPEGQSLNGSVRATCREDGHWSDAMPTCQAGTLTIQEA

B1: G4 (peptide)
peptide: KEFEFLDFDFLPETEPL
modifications: not fully specified (residues 3, 5, 8, 14); also: biotinylated for SPR, place not given here
notes: Synthetic glycosulfonopeptide analogue of the N-terminus of PSGL-1; also called compound 1
B2: PEG40-G4 (P-G4) (peptide)
peptide: {mPEG 40 kDa (SVA)}-KE[Fs]E[Fs]LD[Fs]DFLPET([triazole linker-sLe^x])EPL
modifications: reading uncertain
notes: also called PEG-G4; pegylated click compound

Tests used:
[1] = molecular target: T1, murine P-selectin-Fc chimera; assay: flow cytometry competition: inhibition of murine P-selectin-Fc chimera (3 µg/mL) binding to murine monocytes
[2] = molecular target: T2, human P-selectin-Ig chimera (human, UniProt P16109 42-771); assay: flow cytometry competition: inhibition of human P-selectin-Fc chimera (3 µg/mL) binding to human neutrophils
T2 construct: No source is stated for the chimera used on the microarray and in SPR; also called P-Sel-Ig; P-sel-Ig

[3] = molecular target: T2, human P-selectin-Ig chimera; assay: SPR (Biacore): biotinylated G4 on streptavidin chip, P-sel-Ig flowed at 0.4-100 nM, 1:1 model
[4] = molecular target: T2, human P-selectin-Ig chimera; assay: SPR (Biacore): biotinylated ligand on streptavidin chip, P-selectin-Ig flowed at 0.4-100 nM
[5] = molecular target: T2, human P-selectin-Ig chimera; assay: flow cytometry competition: inhibition of human P-selectin-Fc chimera (3 µg/mL) binding to human monocytes
[6] = molecular target: T1, murine P-selectin-Fc chimera; assay: flow cytometry competition: inhibition of murine P-selectin-Fc chimera (3 µg/mL) binding to murine neutrophils

T2 sequence (P16109 42-771, change not shown): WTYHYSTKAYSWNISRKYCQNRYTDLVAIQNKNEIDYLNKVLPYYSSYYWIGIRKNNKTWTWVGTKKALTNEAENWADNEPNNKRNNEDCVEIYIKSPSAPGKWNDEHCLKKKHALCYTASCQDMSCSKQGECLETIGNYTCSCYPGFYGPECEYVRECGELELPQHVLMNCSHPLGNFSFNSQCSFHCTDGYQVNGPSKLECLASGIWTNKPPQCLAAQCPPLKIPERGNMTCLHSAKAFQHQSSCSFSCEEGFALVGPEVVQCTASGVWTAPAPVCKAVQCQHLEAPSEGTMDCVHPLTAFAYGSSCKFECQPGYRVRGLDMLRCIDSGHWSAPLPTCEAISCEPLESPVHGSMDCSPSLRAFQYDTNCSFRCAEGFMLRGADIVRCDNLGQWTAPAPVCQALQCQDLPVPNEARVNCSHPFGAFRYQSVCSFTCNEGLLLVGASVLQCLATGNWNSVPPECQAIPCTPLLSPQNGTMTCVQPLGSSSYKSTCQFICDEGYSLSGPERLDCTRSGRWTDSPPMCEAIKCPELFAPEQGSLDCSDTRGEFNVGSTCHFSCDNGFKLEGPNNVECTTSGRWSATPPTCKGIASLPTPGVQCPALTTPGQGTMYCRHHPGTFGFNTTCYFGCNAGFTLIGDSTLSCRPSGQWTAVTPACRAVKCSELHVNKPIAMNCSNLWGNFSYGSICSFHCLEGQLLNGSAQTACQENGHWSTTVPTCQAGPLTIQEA

Binder	IC50 [1] [µM]	IC50 [2] [µM]	Kd [3] [µM]	Kd [4] [µM]	IC50 [5] [µM]	IC50 [6] [µM]
B1	10	13	0.069	0.05	16	–
B2	6	9	–	–	12	9
